Results reported in patent CN1552735A.

Experiments:
CD44抗原 (THP-1细胞系表面) [1] = target: CD44抗原 (THP-1细胞系表面) (UniProt P16070); test: flow cytometry on CD44-positive THP-1 cells, HI44a 20 μl (1 mg/ml) then PBS (positive control), goat anti-mouse IgG-FITC
CD44抗原 (THP-1细胞系表面) [2] = target: CD44抗原 (THP-1细胞系表面) (UniProt P16070); test: flow cytometry on THP-1 cells, HI44a 20 μl (1 mg/ml) then competitor anti-CD44 ScFv 100 μl (1 mg/ml), goat anti-mouse IgG-FITC

结合阳性率 (CD44抗原 (THP-1细胞系表面) [1]): 51% | 结合阳性率 (经抗CD44 ScFv竞争后) (CD44抗原 (THP-1细胞系表面) [2]): 27.1%
B1: 抗CD44单克隆抗体HI44a (antibody, IgG2a, V domains shown)
VH: QVKLQESGPGILQPSQTLSLTCSISGFSLNTSGMGVSWIRQPSGKGLEWLAHIYWDDGKRYNPSLKSRLTISKDTSRNQVFLKITSVDTADTGTYYCARRAYGINFAFDYWGQGTTVTVSS
VL: DIQLTQTAAILSVSPGERVSFSCRTSQSIGTSIHWYHQRTNGSPRLLIKSASESMSGIPSRFSGSGSGTDFTLSINSVESEDIAYYYCQQSNSWPLTFGAGTKLEIKR
